# Experimental data from publication PMC4046932.
# Target: Neisseria gonorrhoeae MtrD inner membrane multidrug efflux pump (Neisseria gonorrhoeae) (UniProt Q51073)
# Assay: crystal structure; sitting-drop vapor diffusion at room temperature; 20 mg/ml MtrD in 20 mM Na-HEPES pH 7.5, 0.05% Cymal-6; reservoir 30% PEG 400, 0.1 M Na-Bicine pH 8.5, 0.1 M NH4Cl, 0.05 M BaCl2, 9% glycerol; space group R32, one protomer per asymmetric unit; 3.53 Å
substance,measurement,value
Neisseria gonorrhoeae MtrD inner membrane multidrug efflux pump (from UniProt Q51073 1-1067) (natural protein),stoichiometry N,3
